Measurements published in US20050287136A1.

What was measured:
[1] = target: CTLA-4-Ig(G1) (Repligen, Inc.) (UniProt P16410); assay: IGEN ECL bead assay, CTLA-4-Ig(G1) against B7.2-Ig(G1), antibody 1 ug/ml
[2] = target: CTLA-4-Ig(G1) (Repligen, Inc.) (UniProt P16410); assay: IGEN ECL bead assay, CTLA-4-Ig(G1) against CD28-Ig(G1), antibody 1 ug/ml

selectivity ratio CTLA4/B7.2 [1]: > 500 :1 | selectivity ratio CTLA4/CD28 [2]: > 500 :1
B1: 4.10.2 (antibody, human IgG2, V domains shown)
VH: QVQLVESGGGVVQPGRSLRLSCVASGFIFSSHGIHWVRQAPGKGLEWVAVIWYDGRNKDYADSVKGRFTISRDNSKNTLYLQMNSLRAEDTAVYYCARVAPLGPLDYWGQGTLVTVSS
VL: EFVLTQSPGTLSLSPGERATLSCRASQSISSNFLAWYQQKPGQAPRLLIYRPSSRATGIPDSFSGSGSGTDFTLTISRLEPEDFALYYCQQYGTSPFTFGPGTKVDIK
modifications: chain 1 pos 1: pyroglutamate from Gln (FIG. 9: NH2-Blocked, pQ), written Q
